Data taken from patent US20210285013A1.

Biological target: human ApoB100 (human) (UniProt P04114)
Experiment: cell-based or functional assay

Sequence of UniProt P04114 (P04114 28-4563 limits assumed): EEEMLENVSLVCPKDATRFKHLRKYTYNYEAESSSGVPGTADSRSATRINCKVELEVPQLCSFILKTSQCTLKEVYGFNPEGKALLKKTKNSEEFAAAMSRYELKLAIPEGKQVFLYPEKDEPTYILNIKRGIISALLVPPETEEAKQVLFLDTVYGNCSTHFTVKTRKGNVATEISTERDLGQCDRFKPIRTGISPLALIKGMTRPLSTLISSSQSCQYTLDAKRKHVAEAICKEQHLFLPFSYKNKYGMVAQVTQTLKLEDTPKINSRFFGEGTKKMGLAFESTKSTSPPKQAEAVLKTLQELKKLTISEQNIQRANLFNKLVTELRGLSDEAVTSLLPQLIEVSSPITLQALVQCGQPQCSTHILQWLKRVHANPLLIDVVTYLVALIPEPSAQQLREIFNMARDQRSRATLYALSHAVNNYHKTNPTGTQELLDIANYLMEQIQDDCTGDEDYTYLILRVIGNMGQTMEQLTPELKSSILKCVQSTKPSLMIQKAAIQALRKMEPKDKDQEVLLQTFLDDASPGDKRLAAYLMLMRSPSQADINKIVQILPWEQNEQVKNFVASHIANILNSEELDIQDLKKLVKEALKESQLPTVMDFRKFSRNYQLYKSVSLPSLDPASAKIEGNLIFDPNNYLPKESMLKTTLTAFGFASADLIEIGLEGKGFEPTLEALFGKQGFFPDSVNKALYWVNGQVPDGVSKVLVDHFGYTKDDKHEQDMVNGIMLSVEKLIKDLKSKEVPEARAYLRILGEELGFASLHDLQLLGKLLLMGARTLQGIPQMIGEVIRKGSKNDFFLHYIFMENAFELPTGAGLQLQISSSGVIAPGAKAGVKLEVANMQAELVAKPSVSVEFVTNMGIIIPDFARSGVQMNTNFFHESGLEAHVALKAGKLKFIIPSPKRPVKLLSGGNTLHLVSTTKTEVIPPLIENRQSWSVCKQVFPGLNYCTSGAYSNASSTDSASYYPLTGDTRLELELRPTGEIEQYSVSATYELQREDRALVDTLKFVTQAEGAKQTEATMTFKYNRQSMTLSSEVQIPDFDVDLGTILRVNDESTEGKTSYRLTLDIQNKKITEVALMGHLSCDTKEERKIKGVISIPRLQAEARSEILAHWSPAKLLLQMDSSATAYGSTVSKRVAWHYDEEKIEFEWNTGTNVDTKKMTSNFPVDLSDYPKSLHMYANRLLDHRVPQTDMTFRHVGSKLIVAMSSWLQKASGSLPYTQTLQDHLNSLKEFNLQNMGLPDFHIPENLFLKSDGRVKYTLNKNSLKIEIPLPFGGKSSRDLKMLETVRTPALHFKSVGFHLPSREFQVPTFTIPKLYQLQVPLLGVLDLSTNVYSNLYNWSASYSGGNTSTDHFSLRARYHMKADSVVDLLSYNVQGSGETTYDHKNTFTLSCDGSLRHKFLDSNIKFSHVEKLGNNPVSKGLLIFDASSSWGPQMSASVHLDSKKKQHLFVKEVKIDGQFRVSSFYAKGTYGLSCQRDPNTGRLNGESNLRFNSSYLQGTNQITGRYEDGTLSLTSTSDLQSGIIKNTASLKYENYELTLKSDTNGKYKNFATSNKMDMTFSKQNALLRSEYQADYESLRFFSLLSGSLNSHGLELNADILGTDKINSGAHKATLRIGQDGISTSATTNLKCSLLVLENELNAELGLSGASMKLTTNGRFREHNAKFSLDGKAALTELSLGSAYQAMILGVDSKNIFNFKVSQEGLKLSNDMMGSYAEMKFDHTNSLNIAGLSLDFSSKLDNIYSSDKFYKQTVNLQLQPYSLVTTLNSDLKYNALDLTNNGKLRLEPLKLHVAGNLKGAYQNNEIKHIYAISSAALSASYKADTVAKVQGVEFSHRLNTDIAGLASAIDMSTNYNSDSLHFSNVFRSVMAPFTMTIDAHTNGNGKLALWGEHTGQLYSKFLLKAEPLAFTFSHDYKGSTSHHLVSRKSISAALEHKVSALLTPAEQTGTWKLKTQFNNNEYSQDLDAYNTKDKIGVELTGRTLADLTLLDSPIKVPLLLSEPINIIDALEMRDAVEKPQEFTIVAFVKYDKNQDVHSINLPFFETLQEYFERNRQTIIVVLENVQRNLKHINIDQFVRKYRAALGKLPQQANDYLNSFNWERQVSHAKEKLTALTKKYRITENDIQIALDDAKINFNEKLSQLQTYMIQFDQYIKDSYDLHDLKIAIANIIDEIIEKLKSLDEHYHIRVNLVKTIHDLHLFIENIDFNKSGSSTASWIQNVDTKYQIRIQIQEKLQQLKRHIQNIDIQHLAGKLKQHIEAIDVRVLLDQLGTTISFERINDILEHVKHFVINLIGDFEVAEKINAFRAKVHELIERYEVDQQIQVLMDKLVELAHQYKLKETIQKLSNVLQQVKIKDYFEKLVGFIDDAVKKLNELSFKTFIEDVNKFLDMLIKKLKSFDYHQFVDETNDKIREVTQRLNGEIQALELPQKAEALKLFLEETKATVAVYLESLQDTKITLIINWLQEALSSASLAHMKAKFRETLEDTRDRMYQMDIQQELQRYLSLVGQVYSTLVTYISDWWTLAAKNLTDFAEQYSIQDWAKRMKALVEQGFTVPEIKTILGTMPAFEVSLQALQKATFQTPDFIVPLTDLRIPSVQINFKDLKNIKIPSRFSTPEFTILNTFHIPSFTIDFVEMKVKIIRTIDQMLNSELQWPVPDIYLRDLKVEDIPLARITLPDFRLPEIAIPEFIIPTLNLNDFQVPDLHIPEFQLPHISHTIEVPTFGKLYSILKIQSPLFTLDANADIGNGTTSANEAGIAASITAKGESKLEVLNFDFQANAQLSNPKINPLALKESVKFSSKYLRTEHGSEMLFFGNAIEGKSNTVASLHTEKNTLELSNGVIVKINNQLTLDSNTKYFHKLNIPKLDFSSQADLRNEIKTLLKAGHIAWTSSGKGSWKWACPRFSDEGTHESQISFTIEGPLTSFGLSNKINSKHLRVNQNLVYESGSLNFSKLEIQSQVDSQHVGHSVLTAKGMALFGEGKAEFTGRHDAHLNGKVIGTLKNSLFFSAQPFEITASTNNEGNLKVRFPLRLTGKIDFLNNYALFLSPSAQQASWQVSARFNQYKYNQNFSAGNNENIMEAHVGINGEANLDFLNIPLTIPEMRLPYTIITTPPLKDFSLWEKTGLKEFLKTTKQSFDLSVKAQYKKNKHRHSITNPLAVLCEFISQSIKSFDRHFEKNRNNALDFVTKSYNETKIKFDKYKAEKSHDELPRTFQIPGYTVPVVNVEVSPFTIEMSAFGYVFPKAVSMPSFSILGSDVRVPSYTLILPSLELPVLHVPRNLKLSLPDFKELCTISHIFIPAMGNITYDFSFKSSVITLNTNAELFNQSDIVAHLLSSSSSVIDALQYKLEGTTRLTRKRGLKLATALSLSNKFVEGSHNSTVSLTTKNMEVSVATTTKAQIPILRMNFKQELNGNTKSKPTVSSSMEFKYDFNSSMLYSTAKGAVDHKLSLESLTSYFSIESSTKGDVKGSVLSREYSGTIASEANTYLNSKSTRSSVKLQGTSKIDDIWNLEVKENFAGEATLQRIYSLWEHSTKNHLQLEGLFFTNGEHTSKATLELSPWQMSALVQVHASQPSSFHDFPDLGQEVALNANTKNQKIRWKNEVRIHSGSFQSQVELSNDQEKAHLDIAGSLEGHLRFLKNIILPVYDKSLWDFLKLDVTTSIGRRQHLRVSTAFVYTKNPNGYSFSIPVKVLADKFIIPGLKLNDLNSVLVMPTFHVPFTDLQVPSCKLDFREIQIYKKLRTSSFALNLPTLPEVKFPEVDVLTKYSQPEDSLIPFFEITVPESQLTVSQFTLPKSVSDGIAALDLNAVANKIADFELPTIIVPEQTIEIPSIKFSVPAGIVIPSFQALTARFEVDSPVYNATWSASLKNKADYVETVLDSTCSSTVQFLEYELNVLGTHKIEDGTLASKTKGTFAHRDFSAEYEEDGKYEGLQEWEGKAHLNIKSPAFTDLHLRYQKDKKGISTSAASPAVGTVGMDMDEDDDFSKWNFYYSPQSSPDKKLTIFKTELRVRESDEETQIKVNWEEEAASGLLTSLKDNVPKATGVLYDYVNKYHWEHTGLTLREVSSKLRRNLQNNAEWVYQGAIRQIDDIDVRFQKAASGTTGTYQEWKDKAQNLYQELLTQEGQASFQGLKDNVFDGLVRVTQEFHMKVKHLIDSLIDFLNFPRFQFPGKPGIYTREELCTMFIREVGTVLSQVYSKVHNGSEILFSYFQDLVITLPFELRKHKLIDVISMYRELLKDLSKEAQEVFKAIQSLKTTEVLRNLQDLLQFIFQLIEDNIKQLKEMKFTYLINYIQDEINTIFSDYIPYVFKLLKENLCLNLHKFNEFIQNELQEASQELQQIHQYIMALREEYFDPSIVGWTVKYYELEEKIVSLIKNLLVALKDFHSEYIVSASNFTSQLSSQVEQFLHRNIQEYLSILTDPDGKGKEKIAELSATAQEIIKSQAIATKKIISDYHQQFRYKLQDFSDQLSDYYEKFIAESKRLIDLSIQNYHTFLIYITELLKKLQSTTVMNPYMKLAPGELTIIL

“human low density lipoprotein receptor (hLDLR) (from UniProt P01130 22-860)” was tested, and the reduction of serum cholesterol in LAHB mice after AAV8.TBG.hLDLR was 30%.
